# From patent publication US20140178373A1 (TORAY INDUSTRIES, published 2014)
# Target: T1, CAPRIN-1 protein on the cell membrane surface of human cancer cell lines (human, UniProt Q14444 2-709)
# T1 sequence (looked up): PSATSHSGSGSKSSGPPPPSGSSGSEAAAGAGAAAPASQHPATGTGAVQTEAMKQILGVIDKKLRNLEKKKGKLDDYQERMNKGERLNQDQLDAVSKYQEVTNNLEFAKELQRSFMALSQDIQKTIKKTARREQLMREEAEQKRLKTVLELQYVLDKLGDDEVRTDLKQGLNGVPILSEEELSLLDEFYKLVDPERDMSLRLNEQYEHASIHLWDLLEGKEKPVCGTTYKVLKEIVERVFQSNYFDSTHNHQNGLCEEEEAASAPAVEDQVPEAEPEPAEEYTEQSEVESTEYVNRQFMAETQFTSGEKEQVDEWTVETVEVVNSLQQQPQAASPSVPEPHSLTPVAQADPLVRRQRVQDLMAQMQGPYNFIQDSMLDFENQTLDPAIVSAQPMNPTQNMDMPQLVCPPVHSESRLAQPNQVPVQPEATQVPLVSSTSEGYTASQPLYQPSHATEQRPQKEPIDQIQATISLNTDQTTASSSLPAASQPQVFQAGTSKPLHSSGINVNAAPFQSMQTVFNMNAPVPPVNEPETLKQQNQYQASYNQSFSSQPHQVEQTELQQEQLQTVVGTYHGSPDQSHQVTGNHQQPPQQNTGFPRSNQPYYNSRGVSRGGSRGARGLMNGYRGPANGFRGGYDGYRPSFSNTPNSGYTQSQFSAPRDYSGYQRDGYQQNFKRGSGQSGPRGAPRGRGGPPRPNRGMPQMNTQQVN
# Experiment: cell-based or functional assay
Binder,"cytotoxic activity (ADCC) against MCF7, HCT-116, MIAPaCa-2, Caki-2 and QG56 [%]",cytotoxic activity (ADCC) against all other cancer cells (19 further cell lines) [%]
human-mouse chimeric comparative antibody 1 (antibody) heavy: not shown light: DIQMTQSPASLSASVGETVTITCRASGNIHNYLAWYQQKQGKSPQLLVYNAKTLADGVPSRFSGSGSGTQYSLKINSLQPEDFGSYYCQHFWSTLTFGAGTKLELKRTVAAPSVFIFPPSDEQLKSGTASVVCLLNNFYPREAKVQWKVDNALQSGNSQESVTEQDSKDSTYSLSSTLTLSKADYEKHKVYACEVTHQGLSSPVTKSFNRGEC,< 5,< 4
human-mouse chimeric comparative antibody 3 (antibody) heavy: not shown light: DIQLTQSPASLSASVGETVTITCRASGNIHNYLAWYQQKQGKSPQLLVYNAKTLADGVPSRFSGSGSGTQYSLKINSLQPEDFGSYYCQHFWSTLTFGGGTKLEIKQTVAAPSVFIFPPSDEQLKSGTASVVCLLNNFYPREAKVQWKVDNALQSGNSQESVTEQDSKDSTYSLSSTLTLSKADYEKHKVYACEVTHQGLSSPVTKSFNRGEC,< 5,< 4
"human-mouse chimeric comparative antibody 4 (antibody, human IgG1, kappa, V domains shown) VH: EVQLHQFGAELVKPGASVKISCKASGYTFTDYNMDWVKQSHGKSLEWIGDINPNYDSTSYNQKFKGKATLTVDKSSSTAYMELRSLTSEDTAVYYCARSRSYDYEGFAYWGQGTLVTVSA VL: SGDRVSLSCRASQSISNYLHWYQQKSHESPRLLIKYASQSISGIPSRFSGSGSGTDFTLSINSVETEDFGMYFCQQSNSWPYTFGAGTKLEIKQ",< 5,< 4
"human-mouse chimeric comparative antibody 7 (antibody, human IgG1, kappa, V domains shown) VH: LQESGAELARPGASVKLSCKASGYTFTSYWMQWVKQRPGQGLEWIGAIYPGDGDTRYTQKFKGKATLTADKSSSTAYMQLSSLASEDSAVYYCARGEYGNYFAYWGQGTTVTVSS VL: TSDASLGERVTITCKASQDINSYLSWFQQKPGKSPKTLIYRANRLVDGVPSRFSGSGSGQDYSLTISSLEYEDMGIYYCLQYDEFPLTFGGGTKLEIKQ",< 5,< 4
